US9243032B2, “Compositions for treatment of neurodegenerative diseases” (Ramot at Tel-Aviv University Ltd., priority 2009, dated 2016)
“And” between values parts separate entries of the source, which are not always exact repeats. Equal values may be shown once. One block for each compound: values may come before it. Square brackets hold non-standard residues; d marks the D form. Ends that are not written are not given here. Peptide text beside a SMILES is read from it.

What was measured:
α-syn [1] = molecular target: T1, α-syn (Homo sapiens, UniProt P37840); assay: ThT fluorescence assay of α-syn fibril formation; format: biochemical; conditions: for dose-dependent inhibition of α-syn aggregation: FIG. 3C; for inhibition of fibril formation: as summarised in Example 4
T1 construct: made in house; host or cells: E. coli BL21, pT7-7 vector
Experimental: ThT Florescence Assay: α-syn was dissolved to a concentration of 200 μM in 100 mM Tris buffer (pH 7.4). In order to obtain the monomeric fraction, the protein was filtered through a 100 kDa centricon. Since α-syn is not a globular protein but a natively unfolded one, only monomers and some dimers pass through the filter. […] The samples were incubated at 37° C. with agitation of 850 RPM as described by Tsigelny et al. (Tsigelny et al., 2007 Febs J 274(7), 1862-1877) and the fibrillogenesis rate was followed by thioflavin T (ThT) fluorescence assay (excitation at 450 nm, 2.5 nm slit, and emission at 480 nm, 5 nm slit), after three days of incubation. ThT was added to a 500-fold diluted sample and measured using a Jobin Yvon Horiba Fluoromax 3 fluorimeter.
In order to examine the inhibitory effect of the peptides on α-syn fibril formation, the Thioflavin-T (ThT) binding assay was used. This method provides quantitative information on amyloid fibril growth. α-syn was incubated for several days at 37° C. with vigorous shaking to allow the formation of amyloid fibrils with or without the different β-syn-derived peptides. The fibrillization process was monitored for three days.

α-syn [2] = molecular target: T1, α-syn; assay: Transmission electron microscopy of α-syn fibrils; format: biochemical; conditions: samples from the ThT experiment; FIGS. 3D-K
Experimental: Transmission Electron Microscopy: Samples (10 μL) from the α-syn ThT fluorescence assay (with and without inhibitors) were placed on 400-mesh copper grids covered by carbon-stabilized Formvar film (SPI Supplies, West Chester, Pa.). After 1.5 minutes, excess fluid was removed, and the grids were negatively stained with 10 μl of 2% uranyl acetate solution for 2 minutes. Finally, excess fluid was removed and the samples were viewed in a JEOL 1200EX electron microscope operating at 80 kV.
Transmission electron microscopy (TEM) analysis was performed on samples of α-syn with and without the β-syn inhibitors.

α-syn [3] = molecular target: T1, α-syn; assay: Soluble oligomer formation, Western blot; format: biochemical; conditions: soluble fraction, ~20-24 hours incubation, FIG. 4B
Experimental: Determination of Soluble Oligomer Formation: Monomeric α-syn was dissolved to a concentration of 200 μM in 100 mM Tris buffer (pH 7.4) and was immediately mixed with or without different β-syn derived peptides at a 1:1 ration to a final concentration of 100 μM, as was described above for the aggregation assay. […], 10 μl of the protein were centrifuged at 13000 RPM for 10 minutes, the supernatant was collected and electrophoresed in acrylamide gel using native loading buffer without β-mercaptoethanol and boiling. The gel was washed 3 times in ddH2O and samples were then transferred to the nitrocellulose membrane using semi-dry blot technique applying 323 mA current for 30 minutes. The membrane was blocked for 1 hour using 5% milk diluted in TBS (0.3% Tween) while shaking. Anti α-syn diluted 1:1000 (Santa Cruz Biotechnology) in 5% milk in TBS (0.3% tween) was added to the membrane for 2 hours incubation followed by several washes with TBS (0.3% Tween). Rabbit anti mouse IgG (Fc specific)-HRP conjugated antibody diluted 1:5000 in 5% milk diluted in TBS (0.3% Tween) was administrated for 1 hour at RT while shaking. Blots were developed after thorough TBS (0.3% Tween) washes using Enhanced Chemiluminescence System (ECL) according to the manufacturer's instructions.
To examine the ability of the peptides to inhibit the early stage of aggregation, soluble fractions of α-syn were collected after incubation with the β-syn peptides. The reaction mixtures were separated using SDS-PAGE followed by western blot analysis using a specific anti α-syn antibody (Santa-Cruz) (FIG. 4A).

α-syn monomers = molecular target: T2, α-syn monomers (Homo sapiens, UniProt P37840); assay: Fluorescence anisotropy affinity study; format: binding; conditions: FIG. 5B, read-out: affinity constant (Kd) towards α-syn monomers
T2 construct: made in house; host or cells: E. coli BL21, pT7-7 vector
Experimental: Fluorescence Anisotropy Studies: β-syn 36 in which tyrosine was substituted with tryptophan (SEQ ID NO: 22—[…]) was dissolved to a concentration of 54 μM. The solution was immediately mixed with α-syn monomer stock solution to varying final concentrations. The peptide polarization measurements were carried out using an ISS K2 fluorometer. The solutions were excited at 280 nm and emission was monitored at 350 nm. For each single point, at least five measurements were collected and their average values were used for the calculation. All experiments were performed using ultra pure water.
To determine the affinity of the interaction between β-syn 36 and α-syn monomers, a peptide containing tryptophan instead of tyrosine at position 39 within β-syn was used, exploiting its intrinsic fluorescence in a fluorescence anisotropy assay. […] Increasing amount of α-syn monomers were titrated into a solution of β-syn 36 peptide and anisotropy was determined (FIG. 5B). The affinity constant was calculated as ˜1 μM.

[4] = In vitro peptide stability in mouse brain homogenate; format: in vitro ADME; conditions: fresh mouse brain homogenate, 2 hours, 37° C., HPLC, FIGS. 6A-C
Experimental: In Vitro Assay of Peptide Stability: Peptides were dissolved to form a 1 mM solution in 50 μM Tris buffer (PH=7.6). 120 μl of the peptide solution was diluted into a 10% freshly-taken mouse brain homogenate without the cerebellum (in 1×Tris buffer and 0.5% Triton X-100). A mixture containing 20% peptide solution and 80% mouse brain homogenate was incubated at 37° C. with delicate shaking for 2 hours. The enzyme reaction was stopped by the addition of 0.1 M HCL solution, followed by denaturation of the protein using CH3OH and incubation at 20° C. for 1 hour. The precipitated proteins were centrifuged at 29,000×g for 20 minutes at 4° C. and the supernatant containing the peptide was concentrated under vacuum and separated using a C18 HPLC column. The area of the peak (UV absorbance at 280 nm) corresponding to the intact peptide was compared with an equivalent sample incubated in 50 μM Tris buffer.
Later, the stability of peptide β-syn 36 and the modified retro-inverso peptide was compared using fresh mouse brain homogenate to model serum degradation for a period of 2 hours.

[5] = system: flies expressing A53T α-syn in their nervous system; format: in vivo, Drosophila
Experimental: Fly Keeping: Flies were reared on standard corneal-molasses medium and were kept at 25° C. Male flies were crossed with virgin females collected no longer than 8 hours or 18 hours after eclosion at 25° C. or 18° C. respectively. Adult offspring (F1) from the crosses were collected up to 9 days after the beginning of their eclosion at 25° C. in order to avoid offspring from the next generation (F2).
Fly Crossing: Male flies carrying the driver elav-Ga14 on their X chromosome were crossed with females carrying the A53T α-syn transgene located on their X chromosome under the UAS promoter. […] Offspring of male flies carrying the driver elav-Ga14 crossed with WT OR females served as control.
Special Fly Feeding: β-syn retro-inverso peptide was added to standard corneal-molasses medium at a concentration of 0.75 mg/ml. The peptide was mixed thoroughly into the medium at 40° C. and the mixture was aliquot into rearing vials. The vials were kept at 4° C. until use. Crosses were performed either on regular Drosophila medium (control) or on medium supplemented with the peptide. Animals were fed on the appropriate medium from the beginning of the larval stage. After eclosion, offspring were transferred into a new vial that was pre-dripped with 0.75 mg/ml peptide solution every second day.
Locomotive (Climbing) Assay: Test tubes, each containing 10 flies, were tapped gently on the table and were let stand for 20 seconds. The percent of flies which climbed about one centimeter from the bottom of the test tube was then calculated over time. Each class had five independent test tube repeats.
In order to assess the effect of the peptide on α-syn in the living organism, a Drosophila model of PD was used. The transgenic flies over express the mutated […] α-syn in their nervous system, via the Gal4-UAS system. A common behavioral phenotype of these flies is defective locomotion; while normal flies tend to climb up along the tube, these flies remain at the bottom (Ueda et al., (1993) Proc Natl Acad Sci USA 90(23), 11282-11286). […] This cross was performed either on regular Drosophila medium or on medium supplemented with 0.75 mg/mL β-syn 36 retro-inverso peptide.

Compound: CC(C)C[C@H](NC(=O)[C@@H](NC(=O)CN)C(C)C)C(=O)N[C@@H](Cc1c[nH]c2ccccc12)C(=O)N[C@H](C(=O)NCC(=O)N[C@@H](CO)C(=O)N[C@@H](CCCCN)C(=O)N[C@H](C(=O)N[C@@H](CCCNC(=N)N)C(=O)O)[C@@H](C)O)C(C)C (H-GVLWVGSKTR-OH; N-terminus and C-terminus assumed)
- Kd (α-syn monomers): ~1000 nM and 1000 nM

Compound: CC(C)C[C@@H](NC(=O)[C@@H](Cc1ccc(O)cc1)NC(=O)[C@H](NC(=O)CNC(=O)[C@@H](CO)NC(=O)[C@@H](CCCCN)NC(=O)[C@H](NC(=O)[C@H](N)CCCNC(=N)N)[C@H](C)O)C(C)C)C(=O)N[C@@H](C(=O)NCC(=O)O)C(C)C [β-syn 36 retro-inverso peptide] (H-[dR][dT][dK][dS]G[dV][dY][dL][dV]G-OH)
- stability in brain homogenate [4]: elevation in stability
- stability in brain homogenate ([4]; listed as retro-inverso analogue): stable in human serum
- increase in climbing compared to untreated group ([5]; A53T α-syn flies, day 27): 30%
- percent of flies climbing ([5]; A53T α-syn flies, medium with 0.75 mg/mL peptide, day 27): 66%
- effect on locomotion of control flies ([5]; control flies on medium with peptide): no significant effect
- phenotypic recovery of A53T α-syn flies ([5]; medium with 0.75 mg/mL peptide): great phenotypic recovery

Compound: SMAKEGV [β-syn 6short, seven amino acids peptide, aa 9-15 of β-syn, positive control selected by Windisch et al, reference compound]
- inhibition of fibril formation (α-syn [1]): inhibited the fibrils
- inhibition of oligomer formation (α-syn [3]): not the oligomers formation

Compound: YVGSKTR ([dY][dV]G[dS][dK][dT][dR]) [β-syn 36D short, β-syn 36D lacking amino acids G, V, L]
- inhibition effect on α-syn aggregation (α-syn [1]; ThT, FIG. 7F): no inhibition effect

Now from value to compound, other results behind:

- dose-dependent inhibition of α-syn aggregation (α-syn [1]; ThT, peptide excess 5:1 (molar ratio)): less efficient
- dose-dependent inhibition of α-syn aggregation (α-syn [1]; ThT, peptide excess 10:1 (molar ratio)): still efficient
- inhibition of α-syn aggregation, kinetic analysis (α-syn [1]; ThT, β-syn 36 compared with β-syn 39, FIG. 3B): better inhibition
Compound: GVLYVGSKTR [β-syn 36, decamer, aa 36-45 of β-syn, natural L-amino acids]
- inhibition of fibril formation (α-syn [1]): inhibited almost completely the formation of both aggregation types
- fibril formation by TEM (α-syn [2]): almost completely inhibited fibril formation
- inhibition of oligomer formation (α-syn [3]): inhibited almost completely the formation of both aggregation types

- inhibition of fibril formation (α-syn [1]): not fibril formation
- inhibition of oligomer formation (α-syn [3]): inhibited oligomers
Compound: AATGLVKREE [β-syn 78, decamer, aa 78-87 of β-syn]

- inhibition of fibril formation (α-syn [1]): inhibited the fibrils
- inhibition of oligomer formation (α-syn [3]): not the oligomers formation
Compound: VLYVGSKTRE [β-syn 37, decamer, aa 37-46 of β-syn]
